The values below come from article PMC11741300.

Data set [1] deals with T1, PARP1 (unlabeled) (Homo sapiens, UniProt P09874 1-1014). Put plainly: mass photometry.
Data set [2] addresses T1, PARP1 (unlabeled). Put plainly: mass photometry. The source holds these as a separate data set.
The target in data set [3] is T2, Cy3-PARP1 (Homo sapiens, UniProt P09874 1-1014). Put plainly: smTIRFM.
Data set [4] addresses T1, PARP1 (unlabeled). Put plainly: mass photometry. The source holds these as a separate data set.
Data set [5] addresses T2, Cy3-PARP1. Put plainly: smTIRFM. The source holds these as a separate data set.
The target of data set [6] is T2, Cy3-PARP1. Put plainly: smTIRFM. This is another data set of the same source.
Data set [7] has as its target T2, Cy3-PARP1. Put plainly: smTIRFM. The source holds these as a separate data set.

Like-named read-outs stand apart in the source and are kept apart here.

T2 sequence (P09874 whole entry): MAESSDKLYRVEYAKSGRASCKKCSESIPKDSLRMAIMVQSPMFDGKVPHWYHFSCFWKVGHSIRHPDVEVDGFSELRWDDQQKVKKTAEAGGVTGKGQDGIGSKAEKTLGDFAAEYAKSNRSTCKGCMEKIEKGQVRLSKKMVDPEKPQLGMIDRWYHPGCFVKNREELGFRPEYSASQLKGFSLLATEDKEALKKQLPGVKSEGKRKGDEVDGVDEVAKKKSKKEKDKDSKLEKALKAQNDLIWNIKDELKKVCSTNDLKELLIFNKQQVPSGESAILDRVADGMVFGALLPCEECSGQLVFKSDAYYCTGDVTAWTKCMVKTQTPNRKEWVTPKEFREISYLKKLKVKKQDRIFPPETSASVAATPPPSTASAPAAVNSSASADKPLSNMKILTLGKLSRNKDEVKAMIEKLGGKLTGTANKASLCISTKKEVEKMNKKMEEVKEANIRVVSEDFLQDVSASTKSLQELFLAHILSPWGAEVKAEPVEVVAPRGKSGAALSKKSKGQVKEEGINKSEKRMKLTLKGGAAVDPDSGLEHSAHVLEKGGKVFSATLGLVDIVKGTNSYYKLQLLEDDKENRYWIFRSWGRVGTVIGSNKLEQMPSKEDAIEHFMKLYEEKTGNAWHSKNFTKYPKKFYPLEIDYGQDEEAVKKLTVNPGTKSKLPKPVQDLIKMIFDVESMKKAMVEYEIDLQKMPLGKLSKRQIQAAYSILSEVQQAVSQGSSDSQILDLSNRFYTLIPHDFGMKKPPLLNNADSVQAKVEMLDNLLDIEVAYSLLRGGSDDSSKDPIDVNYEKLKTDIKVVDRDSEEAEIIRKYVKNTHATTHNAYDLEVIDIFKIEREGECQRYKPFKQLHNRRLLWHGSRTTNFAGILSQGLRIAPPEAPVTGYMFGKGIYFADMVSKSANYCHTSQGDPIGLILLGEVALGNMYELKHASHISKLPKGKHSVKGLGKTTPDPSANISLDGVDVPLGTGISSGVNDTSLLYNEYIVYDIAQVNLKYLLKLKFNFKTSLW
T1 sequence (P09874 whole entry): as above

B1: cKITG4-PT (MP) (structured_DNA)
DNA: CATGTAGTCACTATGATTAGGCATAGTGACTACATGGGGCGGGCGCGAGGGAGGGGAGGATCTAATGCATTAAGTTCGCTTAATGCATTAGAT
As for B1, the binding result with PARP1 (unlabeled) [1] is listed as “binds”.

B2: nicked (MP) (structured_DNA)
DNA: CATGTAGTCACTATGAGGCATAGTGACTACATGATCTAATGCATTAAGTTCCTTAATGCATTAGAT
For the molecule B2, the binding result in the data set with PARP1 (unlabeled) [2] is “binds”. In the case of GGGCGGGCGCGAGGGAGGGGAGG (structured_DNA, 3' biotin) [cKITG4 (smTIRFM)], binding with Cy3-PARP1 [3] was put at a Kd of 0.04 ± 0.002 nM.

B3: ssDNA (dT)90 (MP) (ssDNA)
DNA: TTTTTTTTTTTTTTTTTTTTTTTTTTTTTTTTTTTTTTTTTTTTTTTTTTTTTTTTTTTTTTTTTTTTTTTTTTTTTTTTTTTTTTTTTT
As for B3, the binding result with PARP1 (unlabeled) [4] is listed as “no binding”.

B4: nicked (smTIRFM) (structured_DNA)
DNA 1: TGGCGACGGCAGCGAGGCTCTAATGCATTAAGTTCCTTAATGCATTAGA
DNA 2: GCCTCGCTGCCGTCGCCA
modifications: 3' biotin on strand 2
As for B4, the Kd – broadly, a measure of binding affinity in units of concentration – with Cy3-PARP1 [5] stood at 2.67 ± 0.16 nM; with Cy3-PARP1 [3], 3.96 ± 0.2 nM.

B5: cKITG4-PT (smTIRFM) (structured_DNA)
DNA 1: TGGCGACGGCAGCGAGGCGGGCGGGCGCGAGGGAGGGGAGGTCTAATGCATTAAGTTCCTTAATGCATTAGA
DNA 2: GCCTCGCTGCCGTCGCCA
modifications: 3' biotin on strand 2
Consider B5, for which, in the data set with Cy3-PARP1 [3], the equilibrium dissociation constant (Kd) worked out at 3.24 ± 0.09 nM. As to TGGGTGGGTAGGGTGGGTTT (structured_DNA, 3' biotin) [cMYCG4], the binding result in the data set with Cy3-PARP1 [6] is recorded as “binds”.

B6: dsDNA (smTIRFM) (dsDNA)
DNA 1: CATGTAGTCACTATGCTACTGTG
DNA 2: CACAGTAGCATAGTGACTACATG
modifications: 3' biotin on strand 1
In the case of B6, the binding result with Cy3-PARP1 [7] is given as “binds”.
